Assay [1] can be described thus: Fluorescence polarization (FP) binding to fluorescein labeled STX. The settings on record: T = 298K. As for the experimental part:
[…]; Measurements were performed at 25° C. on a Synergy H1 microplate reader (BioTek) using the polarization filter setting (excitation 485 nm, emission 528 nm). […]. The dissociation constants were calculated using GraphPad Prism by fitting fluorescence millipolarization (mP=P·10^−3, where P is polarization) as a function of Sxph concentration using the equation: P={(Pbound−Pfree) [Sxph]/(Kd+[Sxph])}+Pfree, where P is the polarization measured at a given Sxph concentration, Pfree is the […], and Pbound is the maximum polarization of Sxph bound by F-STX (Rossi and Taylor, Hansen et al.).

Assay [2] is described as follows: Isothermal titration calorimetry (ITC) of STX into Sxph. In kind it is binding. The conditions noted are these: 25° C. On the procedure:
ITC measurements were performed at 25° C. using a MicroCal PEAQ-ITC calorimeter (Malvern Panalytical). […]. This STX stock was diluted with the SEC buffer to prepare 100 μM or 300 μM STX solutions having a final buffer composition of 135 mM NaCl, 9 mM HEPES, pH 7.4. […]. The calorimetric experiment settings were: reference power, 5 μcal/s; spacing between injections, 150 s; stir speed 750 rpm; and feedback mode, high. Data were analyzed using MicroCal PEAQ-ITC Analysis Software (Malvern Panalytical) using a single binding site model. The heat of dilution from titrations of 100 μM STX in 135 mM NaCl, 9 mM HEPES, pH 7.4 into 135 mM NaCl, 9 mM HEPES, pH 7.4 was subtracted from each experiment to correct the baseline.
For orientation: Isothermal titration calorimetry measures the heat released or taken up as one component is titrated into another.

B1: OsSxph: Saxiphilin of Oophaga sylvatica, Little devil poison frog, SEQ ID NO:5 (protein, listed as Oophaga sylvatica)
chain: MRMTLQVLLCLCLLVLSSAAPNSRNVRWCVTSDTEEQKCNDLVTSCHVDEILLICVKKSSKEDCVRAISNGEADAISLDSKDVYKASLDPFNLKPIMTEAYSESEQTPCMRHRQSVLGGKKMIIGAFVPKCDEKGNYVPKQCHDSTGFCWCLNENGEEIEGTRTPPGNSGLTCENKANKPPCLKERQKLLSAKPSPAVFVPECDEKGNYRPEQSHVYSWCVDEYGEEVLGSRTFPGKPPKPCEASGETPCIKERNKVLSAAEPLPGAFVPDCDEKGYFSPLQFHGSTGHSWCVTKNGEEIKGTRTRPGQTPPTCDVPAPATLHYAVAVVKKSSSFQLDQLKGKRSCHSAVGEAAGWVAPLNVLLKKKFLLWEEPEQKSTEKVASEIFSASCAAGAQEANLCEQCAGQEDKCTRGPGEPYYGDEGAIRCLRDDKGDVAFVEDTALTGQYSDNFELLCPDNTRRPLSQYKICNFGSVPRHAVVTRSTGDKMKEITEYLLQAQKKECKLFSSTHGKDLLFEDTTSALIALPSGMDTFLFLGPDLFNGMKTLNGAHPPRVKQKIRWCPQNKNEKKKCDDWSSVSGGSIKCTEPSSALECIKMILKDEADAVNLDAEHAYTALKCGLLPSLEEYRNKDDLIVCQIPGAEYSEFGSYRIVALVKKTDKDITWNNLQGKKSCHTHVGDMIGWNIPVYLISKKTKNCDLGSYFSQSCAPGSPIDSNLCKLCIGDPQNTEANTKCSLSDKEAYYGNEGAVRCLVETGDVAFVPHTAVFENTDGKNPALWAKDLKSTDFELLCPDGSRAPVSDYKKCKLSGIANHVTVTRPESVKDVVRITQNQESLYGRTGSQKDIFQMFSSSYGQNLLFNDRTQCLFEFDRMLDRDIMDDYLGKPFHKHLMSDNDCLPKSALATACSFHH
Regarding B1, in assay [1] ([…]G = RT ln (Kd(XSxph)/Kd(RcSxph))), the “[…]G (kcal mol^−1) relative to RcSxph” value was -1.32 kcal/mol.

B2: E540D: RcSxph mutant E540D (protein)
chain: MAPTFQTALFFTIISLSFAAPNAKQVRWCAISDLEQKKCNDLVGSCNVPDITLVCVLRSSTEDCMTAIKDGQADAMFLDSGEVYEASKDPYNLKPIIAEPYSSNRDLQKCLKERQQALAKKMIGHYIPQCDEKGNYQPQQCHGSTGHCWCVNAMGEKISGTNTPPGQTRATCERHELPKCLKERQVALGGDEKVLGRFVPQCDEKGNYEPQQFHGSTGYSWCVNAIGEEIAGTKTPPGKIPATCQKHDLVTTCHYAVAMVKKSSAFQFNQLKGKRSCHSGVSKTDGWKALVTVLVEKKLLSWDGPAKESIQRAMSKFFSVSCIPGATQTNLCKQCKGEEGKNCKNSHDEPYYGNYGAFRCLKEDMGDVAFLRSTALSDEHSEVYELLCPDNTRKPLNKYKECNLGTVPAGTVVTRKISDKTEDINNFLMEAQKRQCKLFSSAHGKDLMFDDSTLQLALLSSEVDAFLYLGVKLFHAMKALTGDAHLPSKNKVRWCTINKLEKMKCDDWSAVSGGAIACTEASCPKGCVKQILKGEADAVKLEVQYMYEALMCGLLPAVDEYHNKDDFGPCKTPGSPYTDFGTLRAVALVKKSNKDINWNNIKGKKSCHTGVGDIAGWVIPVSLIRRQNDNSDIDSFFGESCAPGSDTKSNLCKLCIGDPKNSAANTKCSLSDKEAYYGNQGAFRCLVEKGDVAFVPHTVVFENTDGKNPAVWAKNLKSEDFELLCLDGSRAPVSNYKSCKLSGIPPPAIVTREESISDVVRIVANQQSLYGRKGFEKDMFQLFSSNKGNNLLFNDNTQCLITFDRQPKDIMEDYFGKPYYTTVYGASRSAMSSELISACTIKHC
Regarding B2, in assay [1] ([…]G = RT ln (KdSxph mutant/KdSxph)), the “[…]G (kcal mol^−1) relative to wild-type RcSxph” value amounted to 1.54 kcal/mol. In addition, in assay [2], the “[…]G” value is -9.8 ± 0.1 kcal/mol; the “[…]H (kcal mol^−1), binding enthalpy” value is -16.3 ± 1.7 kcal/mol; the “[…]S (cal mol^−1 K^−1)” value is given as −21.9 ± 5.7 cal mol^−1 K^−1.
